Results reported in IntAct's records for PubMed 10887186.

Biological target: nrl_human NRL (UniProt P54845)
Sequence (P54845 whole entry): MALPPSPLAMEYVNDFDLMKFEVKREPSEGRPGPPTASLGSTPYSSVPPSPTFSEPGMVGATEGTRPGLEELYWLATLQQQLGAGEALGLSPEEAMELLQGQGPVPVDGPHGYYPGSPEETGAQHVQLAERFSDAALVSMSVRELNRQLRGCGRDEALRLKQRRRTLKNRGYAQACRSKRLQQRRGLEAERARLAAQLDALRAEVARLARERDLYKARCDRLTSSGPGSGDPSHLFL

Sequence of Cone-rod homeobox protein (Bos taurus (Bovine)), Q9XSK0 R41W (Q9XSK0 whole entry R41W): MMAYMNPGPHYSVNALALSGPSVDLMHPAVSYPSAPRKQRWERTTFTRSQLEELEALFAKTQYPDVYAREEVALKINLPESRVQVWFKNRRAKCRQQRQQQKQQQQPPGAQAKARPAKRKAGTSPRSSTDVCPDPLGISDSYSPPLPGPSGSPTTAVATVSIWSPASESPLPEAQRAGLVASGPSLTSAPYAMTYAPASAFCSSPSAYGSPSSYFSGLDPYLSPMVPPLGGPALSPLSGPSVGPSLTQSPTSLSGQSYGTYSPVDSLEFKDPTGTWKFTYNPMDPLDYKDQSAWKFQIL
Sequence of Cone-rod homeobox protein (Bos taurus (Bovine)), Q9XSK0 R90W (Q9XSK0 whole entry R90W): as the sequence (Q9XSK0 whole entry R41W) above, with W41R, R90W counted along it

| Substance | effect of a mutation on the interaction |
| --- | --- |
| Cone-rod homeobox protein (Bos taurus (Bovine)), Q9XSK0 R90W | decreasing interaction |
| Cone-rod homeobox protein (Bos taurus (Bovine)), Q9XSK0 R41W | decreasing interaction |
